# Tests used:
# [1] = molecular target: TGFα (human) (UniProt P01135); test: ELISA: biotinylated ligand (20 nM) captured on neutravidin plate, antibody titrated 1:3, anti-human kappa-AP detection, OD405 [panel B]
# [2] = molecular target: Cleaved human epiregulin (human) (UniProt O14944); test: as above
# [3] = molecular target: Cleaved rat epiregulin (rat) (UniProt Q9Z0L5); test: cell-based or functional assay
# [4] = molecular target: Cleaved cynomolgus monkey epiregulin (cynomolgus monkey); test: cell-based or functional assay
# [5] = molecular target: Cleaved rabbit epiregulin (rabbit); test: cell-based or functional assay
# [6] = molecular target: Cleaved human epiregulin (human) (UniProt O14944); test: cell-based or functional assay
substance,measurement,setting,value
LY3016859 (antibody),EC50 (read off the curve),[1],0.02 µg/mL
same,EC50 (read off the curve),[2],0.03 µg/mL
same,"IC50, neutralization of epiregulin induced luciferase reporter activity in C166-AP1-Luciferase cells",[3],720 nM
same,"IC50, neutralization of epiregulin induced luciferase reporter activity in C166-AP1-Luciferase cells",[4],8.6 nM
same,"IC50, neutralization of epiregulin induced luciferase reporter activity in C166-AP1-Luciferase cells",[5],11 nM
same,"IC50, neutralization of epiregulin induced luciferase reporter activity in C166-AP1-Luciferase cells",[6],25.9 nM
same,"IC50, neutralization of human epiregulin induced phospho-ERK induction in TGW cells",[6],14.6 nM

# Source: patent publication US20250101091A1
